Measured values published in patent publication US20100041597A1 (published 2010).

Tests used:
PKC-δ (purified isoform) [1] = target: T1, PKC-δ (purified isoform) (Homo sapiens (Human), UniProt Q05655 1-676); experiment: competitive ELISA on purified PKC-δ vs anti-PKC-δ Ab; PRE 100 µM
T1 construct: also called PKC-delta; PKCdelta
Procedure: (§1) Greiner 96 well ELISA plates were coated with the appropriate PKC isoform diluted in PBSN (PBS with Calcium/Magnesium+0.05% Sodium azide w/w). 50 μL/well at 250 ng/mL was used. Control wells contained PBSN only. Plates were incubated overnight at 4° C.
(§2) The plates were washed 3 times with 200 μL of dH₂O per well, then 100 μL of blocking solution was added per well and the plate incubated for 1 h at 37° C. The washing steps with dH₂O were repeated and 50 μL of the appropriate PRE solution (PRE stock solution [20 mM in DMSO] diluted in PBSN) was added and the plate incubated for 1 h at room temperature.
(§3) 50 μL of 1:1000 dilution of Alkaline Phosphatase (AP) conjugated antibody (anti-rabbit for all except zeta, which was anti-goat) was then added and the plate incubated for 1 h at room temperature. Washing with dH₂O was then repeated. Finally, 100 μL of pNPP solution in pNPP buffer (2 mM MgCl₂, 100 mM Sodium bicarbonate in water, pH 9.8) was added to all wells and incubated for 8 minutes for α, βI, βII ε, and ζ, or for 15-20 mins for […] (until sufficient coloration is observed). The reaction was stopped by addition of Stop solution (2N NaOH) and the absorbance at 405 nm was read on a Galaxy Plate reader.

[2] = target: T2, PKC-βI (purified isoform) (Homo sapiens (Human), UniProt P05771 2-671); experiment: competitive ELISA on purified PKC-βI vs anti-PKC-βI Ab; PRE 100 µM
T2 construct: also called PKC-beta I
T2 sequence (P05771 2-671 limits assumed): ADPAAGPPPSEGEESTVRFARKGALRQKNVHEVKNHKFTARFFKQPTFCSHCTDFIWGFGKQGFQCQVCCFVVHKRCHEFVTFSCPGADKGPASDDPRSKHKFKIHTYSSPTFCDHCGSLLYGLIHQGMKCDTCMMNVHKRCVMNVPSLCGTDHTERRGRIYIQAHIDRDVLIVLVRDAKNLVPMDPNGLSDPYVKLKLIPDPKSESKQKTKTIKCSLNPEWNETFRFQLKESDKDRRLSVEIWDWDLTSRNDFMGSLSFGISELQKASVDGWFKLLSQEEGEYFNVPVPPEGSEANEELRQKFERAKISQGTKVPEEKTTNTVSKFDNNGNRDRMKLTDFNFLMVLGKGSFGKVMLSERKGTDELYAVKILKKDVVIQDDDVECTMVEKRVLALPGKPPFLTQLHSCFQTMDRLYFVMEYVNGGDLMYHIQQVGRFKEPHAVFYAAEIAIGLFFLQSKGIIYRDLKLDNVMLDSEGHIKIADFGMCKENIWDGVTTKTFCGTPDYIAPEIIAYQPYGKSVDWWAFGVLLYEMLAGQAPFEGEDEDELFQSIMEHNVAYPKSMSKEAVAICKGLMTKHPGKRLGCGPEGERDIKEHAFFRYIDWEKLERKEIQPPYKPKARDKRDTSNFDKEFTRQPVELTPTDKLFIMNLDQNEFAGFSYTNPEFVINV
Procedure: as §1, §2, §3

PKC-δ (purified isoform) [3] = target: T1, PKC-δ (purified isoform); experiment: competitive ELISA on purified PKC-δ vs anti-PKC-δ Ab; PRE 200 µM
Procedure: as §1, §2, §3

PKC-δ (purified isoform) [4] = target: T1, PKC-δ (purified isoform); experiment: competitive ELISA on purified PKC-δ vs anti-PKC-δ Ab; PRE 50 µM
Procedure: as §1, §2, §3

[5] = target: T2, PKC-βI (purified isoform); experiment: competitive ELISA on purified PKC-βI vs anti-PKC-βI Ab; PRE 200 µM
Procedure: as §1, §2, §3

PKC-ζ (purified isoform) [6] = target: T3, PKC-ζ (purified isoform) (Homo sapiens (Human), UniProt Q05513 1-592); experiment: competitive ELISA on purified PKC-ζ vs anti-PKC-ζ Ab; PRE 200 µM
T3 construct: also called PKC-zeta; PKCzeta
T3 sequence: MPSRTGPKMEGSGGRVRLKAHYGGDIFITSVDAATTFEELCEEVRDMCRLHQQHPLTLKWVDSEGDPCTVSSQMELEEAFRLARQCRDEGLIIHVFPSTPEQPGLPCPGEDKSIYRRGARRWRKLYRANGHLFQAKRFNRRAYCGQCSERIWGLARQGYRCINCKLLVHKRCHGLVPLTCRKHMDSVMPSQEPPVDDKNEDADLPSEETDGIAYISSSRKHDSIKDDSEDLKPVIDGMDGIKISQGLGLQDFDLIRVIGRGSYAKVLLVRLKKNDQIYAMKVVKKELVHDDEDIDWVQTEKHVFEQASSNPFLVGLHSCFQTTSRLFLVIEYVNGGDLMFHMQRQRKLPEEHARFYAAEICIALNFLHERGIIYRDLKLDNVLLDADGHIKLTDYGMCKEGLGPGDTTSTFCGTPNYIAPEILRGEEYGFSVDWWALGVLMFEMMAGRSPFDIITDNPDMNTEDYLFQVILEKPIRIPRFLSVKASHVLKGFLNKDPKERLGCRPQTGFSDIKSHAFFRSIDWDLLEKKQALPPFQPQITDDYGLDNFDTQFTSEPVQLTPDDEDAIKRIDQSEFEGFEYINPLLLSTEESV
Procedure: as §1, §2, §3

PKC-ζ (purified isoform) [7] = target: T3, PKC-ζ (purified isoform); experiment: competitive ELISA on purified PKC-ζ vs anti-PKC-ζ Ab; PRE 100 µM
Procedure: as §1, §2, §3

[8] = target: T4, PKC-α (endogenous, human cell lysates and cells) (human, UniProt P17252 2-672); experiment: anti-PKC-α immunofluorescence, V5E-transfected IMR-32 cells loaded with PRE (label on PKC-α and V5E); control with endocytosis reagent 113
T4 construct: Endogenous protein of human cell lysates, on Western blot membranes (denatured) or in fixed cells; also called PKC-alpha; PKC-A
Description: Neuroblastoma cells from the IMR-32 cell line were stably transfected with a vector containing the V5E sequence of PKC-α as outlined above in Example 13. The V5E sequence is part of the antigenic amino acid sequence that is used to raise the commercially available anti-PKC-α isoform-specific antibody.
The peptides PRE 1, 2, 3, 4, 5, 6, 7, 8, 9, 10, 11, 12 and 13 (see Table 3) were incorporated into the transfected IMR-32 cells via pinocytic endocytosis (Molecular Probes) according to the supplier's recommendations. Following fixation and permeabilization, PKC-α was detected using an Alexa fluor secondary antibody (as described above in Example 8).

PKC-α (purified isoform) = target: T5, PKC-α (purified isoform) (Homo sapiens (Human), UniProt P17252 2-672); experiment: competitive ELISA on purified PKC-α vs anti-PKC-α Ab; PRE 200 µM
T5 construct: also called PKC-alpha; PKCalpha
Procedure: as §1
After incubation, 5 μL of 1.1:400 anti-PKC (isoform specific antibody) was added per well (to provide a final concentration of 1:4000). For PKC-epsilon, 1.1:800 dilution was used and for PKC-zeta a 1.1:100 dilution was used due to high and low binding affinity, respectively. The plates were then incubated 1 h at room temperature, followed by washing with dH₂O as described above.
as §3

PKC-ζ (purified isoform) [9] = target: T3, PKC-ζ (purified isoform); experiment: competitive ELISA on purified PKC-ζ vs anti-PKC-ζ Ab; PRE 50 µM
Procedure: as §1, §2, §3

[10] = target: T2, PKC-βI (purified isoform); experiment: competitive ELISA on purified PKC-βI vs anti-PKC-βI Ab; PRE 50 µM
Procedure: as §1, §2, §3

T1 sequence (Q05655 whole entry, stated change not applied, canonical isoform): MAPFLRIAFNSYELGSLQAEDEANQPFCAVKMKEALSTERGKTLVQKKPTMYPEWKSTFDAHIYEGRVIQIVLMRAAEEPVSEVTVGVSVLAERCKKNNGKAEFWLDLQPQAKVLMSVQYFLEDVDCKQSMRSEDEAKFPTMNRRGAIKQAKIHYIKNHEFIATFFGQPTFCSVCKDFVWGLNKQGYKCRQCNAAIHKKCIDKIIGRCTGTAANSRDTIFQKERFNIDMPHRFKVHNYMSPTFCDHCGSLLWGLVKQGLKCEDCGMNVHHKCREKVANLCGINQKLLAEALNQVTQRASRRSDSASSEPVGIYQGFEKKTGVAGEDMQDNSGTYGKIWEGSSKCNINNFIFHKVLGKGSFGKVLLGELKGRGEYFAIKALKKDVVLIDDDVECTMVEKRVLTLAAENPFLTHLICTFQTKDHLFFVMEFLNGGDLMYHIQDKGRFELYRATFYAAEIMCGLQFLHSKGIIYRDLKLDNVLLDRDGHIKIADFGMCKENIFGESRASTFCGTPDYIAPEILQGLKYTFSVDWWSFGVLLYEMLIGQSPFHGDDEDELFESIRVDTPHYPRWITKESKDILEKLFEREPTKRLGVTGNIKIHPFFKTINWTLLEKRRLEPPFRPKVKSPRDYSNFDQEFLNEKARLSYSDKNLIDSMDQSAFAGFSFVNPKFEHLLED

Row | Binder | binding capacity (%) (PKC-δ (purified isoform) [1]) | binding capacity (%) [2] [%] | binding capacity (%) (PKC-δ (purified isoform) [3]) | binding capacity (%) (PKC-δ (purified isoform) [4]) | binding capacity (%) [5] [%] | binding capacity (%) (PKC-ζ (purified isoform) [6]) | binding capacity (%) (PKC-ζ (purified isoform) [7]) | Relative Fluorescence Intensity [8] | binding capacity (%) (PKC-α (purified isoform)) | binding capacity (%) (PKC-ζ (purified isoform) [9]) | binding capacity (%) [10] [%]
1 | Ac-AKGIQEVKGGDAQNLIGISI-NH2 (Synthetic peptide; also called peptide PRE 3) [PRE 3] | 56 | 22.5 | 57 | 48.3 | 23 | 29.1 | 23.9 | 83 | 22.6 | 14 | 26
2 | Ac-KDAQNLI-NH2 (Synthetic peptide; also called peptide PRE 12; Ac-KDAQNLI-NH2) [PRE 12] | 1.02 | 0 | 23.5 | 2.26 | 0 |  |  | 124 | 0 |  | 0.79
3 | Ac-RDAQNLI-NH2 (Synthetic peptide; also called peptide PRE 13; Ac-RDAQNLI-NH2) [PRE 13] | 0.79 | 0 | 17.9 | 0 | 0 | 4.29 | 0 |  |  | 0 | 0
4 | Ac-ISIGILQNADK-NH2 (Synthetic peptide (retro form of PRE 4); also called peptide PRE 7) [PRE 7] | 0 | 0 | 0 | 3.06 | 0 | 1.54 | 0 | 75 | 6.59 | 1.83 | 2.1
5 | Ac-KDAQNLIGISI-NH2 (Synthetic peptide; also called peptide PRE 4) [PRE 4] | 30.7 | 15.7 | 17.3 | 29.2 | 7.46 | 5.85 | 0 | 79 | 22.8 | 0 | 6.02
6 | Ac-RDAQNLIGISI-NH2 (Synthetic peptide; also called peptide PRE 11) [PRE 11] | 21.5 |  | 18.7 | 34.1 |  | 0 | 0 | 131 | 13.3 | 0 | 
7 | Ac-KDANQLIGISI-NH2 (Synthetic peptide; also called peptide PRE 6) [PRE 6] | 13.2 | 7.93 | 14 | 17.5 | 6.14 | 0 | 0 | 73 |  | 0 | 0
